Source: US20240067748A1 (NONA BIOSCIENCES SUZHOU, published 2024)
One block for each binder: values may come before it.

Experiments:
[1] = molecular target: T1, human TROP2 protein (Sino Biological, #10428-H08H) (human, UniProt P09758 27-274); experiment: BLI epitope binning (Octet), biotinylated human Trop2 on SA sensor; row = primary antibody; competitor (secondary antibody, column): PR001142
T1 construct: bought protein; also called human Trop2 protein antigen (His tag); not shown: His tag
T1 sequence (looked up): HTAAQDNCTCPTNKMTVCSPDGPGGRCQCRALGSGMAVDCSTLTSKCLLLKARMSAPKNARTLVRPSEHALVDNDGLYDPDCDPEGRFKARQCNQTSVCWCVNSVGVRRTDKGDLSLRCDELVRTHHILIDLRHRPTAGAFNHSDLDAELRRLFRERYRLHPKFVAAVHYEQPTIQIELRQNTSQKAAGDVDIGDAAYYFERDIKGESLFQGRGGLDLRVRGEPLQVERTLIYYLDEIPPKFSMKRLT
Description: (§1) The biotinylated mixture after the incubation was washed three times with PBS and a Zeba centrifugal desalting column (Thermo Fisher, #89882) to remove excess biotin. The biotinylated Trop2 protein was captured by an SA sensor (Pall ForteBio, #18-5019) with the loading baseline set at 0.3 nm. The sensor was immersed in a well of assay buffer containing 50 nM primary antibody for 300 s. […] The binding assay was performed by comparing the binding of the secondary antibody to Trop2 in the presence of the primary antibody to the blocking of the primary antibody itself.

[2] = molecular target: T2, human Trop2 on cells (human, UniProt P09758 27-323); experiment: cell-based or functional assay
T2 sequence (looked up): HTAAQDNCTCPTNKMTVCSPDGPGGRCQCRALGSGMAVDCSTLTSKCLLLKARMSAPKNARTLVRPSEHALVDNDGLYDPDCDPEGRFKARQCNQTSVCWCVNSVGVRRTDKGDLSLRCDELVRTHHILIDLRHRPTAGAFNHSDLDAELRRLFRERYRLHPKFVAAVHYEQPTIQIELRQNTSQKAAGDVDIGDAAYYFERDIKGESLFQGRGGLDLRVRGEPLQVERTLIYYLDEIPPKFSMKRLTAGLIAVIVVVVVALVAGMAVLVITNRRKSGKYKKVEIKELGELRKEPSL

[3] = molecular target: T3, monkey Trop2 protein (Sino Biological, #90893-C08H) (monkey, UniProt A0A2K5UE71 27-274); experiment: BLI, Octet RED96, AHC sensor
T3 construct: bought protein; also called monkey Trop2 protein antigen (His tag)
T3 sequence: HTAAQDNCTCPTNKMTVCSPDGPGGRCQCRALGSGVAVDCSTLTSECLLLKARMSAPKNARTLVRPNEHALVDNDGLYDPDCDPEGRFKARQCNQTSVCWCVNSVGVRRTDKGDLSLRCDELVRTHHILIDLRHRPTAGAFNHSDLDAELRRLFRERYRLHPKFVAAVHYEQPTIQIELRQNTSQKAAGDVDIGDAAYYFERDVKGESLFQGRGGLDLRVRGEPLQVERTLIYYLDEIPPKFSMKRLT
Description: (§2) Specifically, a human TROP2 protein (Sino Biological, #10428-H08H) or a monkey Trop2 protein (Sino Biological, #90893-C08H) was diluted to 200 nM with a PBS buffer (pH 7.4) containing 0.1% (w/w) BSA and 0.02% (v/v) tween 20, and incubated with the AHC sensor respectively. 40 nM Trop2 antibody was incubated at 30° C. for 3 min with the AHC sensor loaded with the human Trop2 protein or monkey Trop2 protein respectively. The reaction mixture was incubated at 30° C. for another 5 min in a PBS buffer (pH 7.4) containing 0.1% (v/w) BSA and 0.02% (v/v) Tween 20. The association and dissociation signals between the Trop2 antibody and the human Trop2 protein or monkey Trop2 protein were recorded by Octet Red 96 in real time. The affinity and the association and dissociation constants were determined by Octet using software.

[4] = molecular target: T1, human TROP2 protein (Sino Biological, …); experiment: BLI, Octet RED96, AHC sensor
Description: as §2

[5] = molecular target: T1, human TROP2 protein (Sino Biological, …); experiment: BLI epitope binning (Octet), biotinylated human Trop2 on SA sensor; row = primary antibody; competitor (secondary antibody, column): PR001165
Description: as §1

[6] = molecular target: T1, human TROP2 protein (Sino Biological, …); experiment: BLI epitope binning (Octet), biotinylated human Trop2 on SA sensor; row = primary antibody; competitor (secondary antibody, column): PR001166
Description: as §1

[7] = molecular target: T1, human TROP2 protein (Sino Biological, …); experiment: BLI epitope binning (Octet), biotinylated human Trop2 on SA sensor; row = primary antibody; competitor (secondary antibody, column): hRS7
Description: as §1

[8] = molecular target: T2, human Trop2 on cells; experiment: cell-based or functional assay; remark: listed apart in the source
[9] = molecular target: T3, monkey Trop2 protein (Sino Biological, …); experiment: SPR, Biacore T200, antigen immobilised on CM5 chip
Description: (§3) HBS-EP+ (10 mM HEPES, 150 mM NaCl, 3 mM EDTA, and 0.05% P20, pH 7.4, GE Healthcare, BR-1001-88) was used as a running buffer throughout the test. […] Data were analyzed using Biacore T200 (GE Healthcare, T200 model, #BIAC-B20-03) Evaluation 3.1 software.

[10] = molecular target: T1, human TROP2 protein (Sino Biological, …); experiment: SPR, Biacore T200, antigen immobilised on CM5 chip
Description: as §3

[11] = molecular target: T3, monkey Trop2 protein (Sino Biological, …); experiment: BLI, Octet RED96; ratio against KD for human Trop2 protein
Description: as §2

- Inhibition rate (%) [1]: 98.1%
- ADCC (donor 1152#) EC50(nM), BxPC-3 + PBMC, LDH release [2]: 0.0324 nM
- ADCC (donor 2153#) EC50(nM), BxPC-3 + PBMC, LDH release [2]: 0.0616 nM
- Kd [3]: 0.26 nM
- Response [3]: 0.393
- koff [3]: 2.62e-05 s⁻¹
- kon [3]: 101000 M⁻¹ s⁻¹
- Kd [4]: < 0.001 nM
- Response [4]: 0.38
- fold lower KD than the reference antibody Tab (hRS7) [4]: ~10 fold
- koff [4]: < 1e-07 s⁻¹
- kon [4]: 164000 M⁻¹ s⁻¹
- Inhibition rate (%) [5]: 97.7%
- Inhibition rate (%) [6]: 5.24%
- Inhibition rate (%) [7]: 96.4%
- ADCP (Donor A1925144#) EC50(nM), BxPC-3 + macrophages [8]: 0.0683 nM
- ADCP (Donor A1925144#) Maximum phagocytosis % [8]: 12.5%
- ADCP (Donor A1925144#) Minimum phagocytosis % [8]: 2.25%
- ADCP (Donor A19143143#) EC50(nM), BxPC-3 + macrophages [8]: 0.178 nM
- ADCP (Donor A19143143#) Maximum phagocytosis % [8]: 42.7%
- ADCP (Donor A19143143#) Minimum phagocytosis % [8]: 1.37%
- Kd [9]: 0.491 nM
- koff [9]: 0.000125 s⁻¹
- kon [9]: 255000 M⁻¹ s⁻¹
- Kd [10]: 0.495 nM
- koff [10]: 0.000152 s⁻¹
- kon [10]: 307000 M⁻¹ s⁻¹
B1: PR001165 (antibody, human IgG1, kappa, V domains shown)
VH: QVQLVESGGGVVQPGRSLRLSCEASGFTFSHYGMHWVRQAPGKGLEWVAVIWYDGIKTYYVESVKGRFTISRDNSKNTLNLQMNRLRAEDTAVYYCARDGGFGESNYYGLDVWGQGTTVTVSS
VL: DIQLTQSPSFLSASVGDRVTITCRASQGISSYLGWYQQKPGKAPKLLIYIASTLQSGVPSRFSGSGSGTEFTLTISSLQPEDFATYYCQQLNSYPYTFGQGTKLEIKR
notes: fully human IgG1/kappa; also called antibody No. (26)
- ADCC (donor 1152#) Maximum cell killing % [2]: 39%
- ADCC (donor 1152#) Minimum cell killing % [2]: 5.79%
- ADCC (donor 2153#) Maximum cell killing % [2]: 70.8%
- ADCC (donor 2153#) Minimum cell killing % [2]: 14%

- Kd [3]: < 0.001 nM
- Response [3]: 0.315
- koff [3]: < 1e-07 s⁻¹
- kon [3]: 37700 M⁻¹ s⁻¹
- Kd [4]: < 0.001 nM
- Response [4]: 0.357
- koff [4]: < 1e-07 s⁻¹
- kon [4]: 55200 M⁻¹ s⁻¹
B2: PR001130 (antibody, human IgG1, kappa, V domains shown)
VH: QVQLQESGPGLVKPSGTLSLTCAVSGDSISSHNWWSWVRQPPGKGLEWIGEIYHSGITSYNPSLKSRVTISVDKSKNQFSLKLNSVTAADTAMYYCARGSGVISYFDYWGQGTLVTVSS
VL: DIQMTQSPSTLSASVGDRVTITCRASQSIGNWLAWYQQKPGKAPKLLIYKASSLESGVPSRFSGSGSGTEFTLTISSLQPDDFATYYCQQYDSYSPITFGQGTRLEIKR
notes: fully human IgG1/kappa; also called antibody No. (2)

- KD (monkey)/KD (human) [11]: 1.62
- Kd [3]: 7.75 nM
- Response [3]: 0.328
- koff [3]: 0.000528 s⁻¹
- kon [3]: 68100 M⁻¹ s⁻¹
- Kd [4]: 4.79 nM
- Response [4]: 0.336
- koff [4]: 0.000426 s⁻¹
- kon [4]: 89000 M⁻¹ s⁻¹
B3: PR001139 (antibody, human IgG1, kappa, V domains shown)
VH: QVQLVESGGGVVQPGRSLRLSCAASGFTFSSFGMQWVRQGPGKGLEWVAVMWFDGSNKYYVDSVKGRFTISRDNSKNTLYLQMNSLRAEDTAVYYCARLDFSGWPLIDYWGQGTLVTVSS
VL: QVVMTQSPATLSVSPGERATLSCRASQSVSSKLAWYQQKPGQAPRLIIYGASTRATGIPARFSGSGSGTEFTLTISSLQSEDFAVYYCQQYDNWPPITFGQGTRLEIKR
notes: fully human IgG1/kappa; also called antibody No. (8)
